{"source": "the supplement of paper PMC10567573", "parents": {"B1": {"name": "P2RY14 (parent)", "chain": "KKIFKSHLKSSRNSTSVKKKSSRN"}}}
{"variants_of": "B1", "assay": "protein stability index of a GFP-peptide fusion (GPS, HEK-293T) (PSI 1-6); higher = more stable", "conditions": "c terminus: a fixed tail appended"}
{"variant": "KKIFKSHLKSSRNSTSYKKKSSRN", "protein stability index": 3.99}
{"variant": "KKIFKSHLKSSRNSTSWKKKSSRN", "protein stability index": 3.6}
{"variant": "KKIFKSHLKSSRNSTSVMKKSSRN", "protein stability index": 4.1}
{"variant": "KKIFKSHLKSSRNSTSVAKKSSRN", "protein stability index": 3.8}
{"variant": "KKIFKSHLKSSRNSTSVSKKSSRN", "protein stability index": 4.21}
{"variant": "KKIFKSHLKSSRNSTSVLKKSSRN", "protein stability index": 3.86}
{"variant": "KKIFKSHLKSSRNSTSVFKKSSRN", "protein stability index": 3.54}
{"variant": "KKIFKSHLKSSRNSTSVNKKSSRN", "protein stability index": 4.27}
{"variant": "KKIFKSHLKSSRNSTSVIKKSSRN", "protein stability index": 3.7}
{"variant": "KKIFKSHLKSSRNSTSVRKKSSRN", "protein stability index": 3.88}
{"variant": "KKIFKSHLKSSRNSTSVTKKSSRN", "protein stability index": 4.17}
{"variant": "KKIFKSHLKSSRNSTSVGKKSSRN", "protein stability index": 3.99}
{"variant": "KKIFKSHLKSSRNSTSVDKKSSRN", "protein stability index": 3.98}
{"variant": "KKIFKSHLKSSRNSTSVPKKSSRN", "protein stability index": 4.29}
{"variant": "KKIFKSHLKSSRNSTSVEKKSSRN", "protein stability index": 3.98}
{"variant": "KKIFKSHLKSSRNSTSVYKKSSRN", "protein stability index": 3.66}
{"variant": "KKIFKSHLKSSRNSTSVVKKSSRN", "protein stability index": 3.74}
{"variant": "KKIFKSHLKSSRNSTSVHKKSSRN", "protein stability index": 4.07}
{"variant": "KKIFKSHLKSSRNSTSVWKKSSRN", "protein stability index": 2.98}
{"variant": "KKIFKSHLKSSRNSTSVQKKSSRN", "protein stability index": 3.67}
{"variant": "KKIFKSHLKSSRNSTSVCKKSSRN", "protein stability index": 3.34}
{"variant": "KKIFKSHLKSSRNSTSVKKGSSRN", "protein stability index": 3.43}
{"variant": "KKIFKSHLKSSRNSTSVKKCSSRN", "protein stability index": 3.67}
{"variant": "KKIFKSHLKSSRNSTSVKKWSSRN", "protein stability index": 3.15}
{"variant": "KKIFKSHLKSSRNSTSVKKFSSRN", "protein stability index": 2.75}
{"variant": "KKIFKSHLKSSRNSTSVKKSSSRN", "protein stability index": 4.07}
{"variant": "KKIFKSHLKSSRNSTSVKKRSSRN", "protein stability index": 4.39}
{"variant": "KKIFKSHLKSSRNSTSVKKISSRN", "protein stability index": 3.5}
{"variant": "KKIFKSHLKSSRNSTSVKKASSRN", "protein stability index": 3.64}
{"variant": "KKIFKSHLKSSRNSTSVKKHSSRN", "protein stability index": 3.62}
{"variant": "KKIFKSHLKSSRNSTSVKKMSSRN", "protein stability index": 3.48}
{"variant": "KKIFKSHLKSSRNSTSVKKLSSRN", "protein stability index": 3.42}
{"variant": "KKIFKSHLKSSRNSTSVKKESSRN", "protein stability index": 3.75}
{"variant": "KKIFKSHLKSSRNSTSVKKQSSRN", "protein stability index": 4.04}
{"variant": "KKIFKSHLKSSRNSTSVKKYSSRN", "protein stability index": 3.95}
{"variant": "KKIFKSHLKSSRNSTSVKKDSSRN", "protein stability index": 3.89}
{"variant": "KKIFKSHLKSSRNSTSVKKVSSRN", "protein stability index": 3.81}
{"variant": "KKIFKSHLKSSRNSTSVKKPSSRN", "protein stability index": 3.83}
{"variant": "KKIFKSHLKSSRNSTSVKKNSSRN", "protein stability index": 3.86}
{"variant": "KKIFKSHLKSSRNSTSVKKTSSRN", "protein stability index": 3.62}
{"variant": "KKIFKSHLKSSRNSTSVKSKSSRN", "protein stability index": 3.9}
{"variant": "KKIFKSHLKSSRNSTSVKIKSSRN", "protein stability index": 3.59}
{"variant": "KKIFKSHLKSSRNSTSVKHKSSRN", "protein stability index": 3.99}
{"variant": "KKIFKSHLKSSRNSTSVKQKSSRN", "protein stability index": 4}
{"variant": "KKIFKSHLKSSRNSTSVKDKSSRN", "protein stability index": 3.6}
{"variant": "KKIFKSHLKSSRNSTSVKEKSSRN", "protein stability index": 3.98}
{"variant": "KKIFKSHLKSSRNSTSVKVKSSRN", "protein stability index": 4.31}
{"variant": "KKIFKSHLKSSRNSTSVKMKSSRN", "protein stability index": 3.92}
{"variant": "KKIFKSHLKSSRNSTSVKWKSSRN", "protein stability index": 2.96}
{"variant": "KKIFKSHLKSSRNSTSVKGKSSRN", "protein stability index": 4.02}
{"variant": "KKIFKSHLKSSRNSTSVKNKSSRN", "protein stability index": 3.98}
{"variant": "KKIFKSHLKSSRNSTSVKYKSSRN", "protein stability index": 3.17}
{"variant": "KKIFKSHLKSSRNSTSVKCKSSRN", "protein stability index": 3.34}
{"variant": "KKIFKSHLKSSRNSTSVKPKSSRN", "protein stability index": 3.34}
{"variant": "KKIFKSHLKSSRNSTSVKFKSSRN", "protein stability index": 3.13}
{"variant": "KKIFKSHLKSSRNSTSVKTKSSRN", "protein stability index": 3.62}
{"variant": "KKIFKSHLKSSRNSTSVKLKSSRN", "protein stability index": 3.5}
{"variant": "KKIFKSHLKSSRNSTSVKAKSSRN", "protein stability index": 3.98}
{"variant": "KKIFKSHLKSSRNSTSVKRKSSRN", "protein stability index": 4.27}
{"variant": "KKIFKSHLKSSRNSTSVKKKSERN", "protein stability index": 4.06}
{"variant": "KKIFKSHLKSSRNSTSVKKKSLRN", "protein stability index": 3.48}
{"variant": "KKIFKSHLKSSRNSTSVKKKSIRN", "protein stability index": 5.05}
{"variant": "KKIFKSHLKSSRNSTSVKKKSDRN", "protein stability index": 4}
{"variant": "KKIFKSHLKSSRNSTSVKKKSHRN", "protein stability index": 4.64}
{"variant": "KKIFKSHLKSSRNSTSVKKKSTRN", "protein stability index": 4.19}
{"variant": "KKIFKSHLKSSRNSTSVKKKSRRN", "protein stability index": 4.13}
{"variant": "KKIFKSHLKSSRNSTSVKKKSNRN", "protein stability index": 4.2}
{"variant": "KKIFKSHLKSSRNSTSVKKKSARN", "protein stability index": 4.01}
{"variant": "KKIFKSHLKSSRNSTSVKKKSPRN", "protein stability index": 4.21}
{"variant": "KKIFKSHLKSSRNSTSVKKKSQRN", "protein stability index": 4.49}
{"variant": "KKIFKSHLKSSRNSTSVKKKSKRN", "protein stability index": 4.43}
{"variant": "KKIFKSHLKSSRNSTSVKKKSFRN", "protein stability index": 2.92}
{"variant": "KKIFKSHLKSSRNSTSVKKKSCRN", "protein stability index": 4.07}
{"variant": "KKIFKSHLKSSRNSTSVKKKSMRN", "protein stability index": 4.19}
{"variant": "KKIFKSHLKSSRNSTSVKKKSGRN", "protein stability index": 4.32}
{"variant": "KKIFKSHLKSSRNSTSVKKKASRN", "protein stability index": 3.98}
{"variant": "KKIFKSHLKSSRNSTSVKKKMSRN", "protein stability index": 3.92}
{"variant": "KKIFKSHLKSSRNSTSVKKKNSRN", "protein stability index": 4.17}
{"variant": "KKIFKSHLKSSRNSTSVKKKGSRN", "protein stability index": 3.8}
{"variant": "KKIFKSHLKSSRNSTSVKKKTSRN", "protein stability index": 3.8}
{"variant": "KKIFKSHLKSSRNSTSVKKKQSRN", "protein stability index": 3.88}
{"variant": "KKIFKSHLKSSRNSTSVKKKKSRN", "protein stability index": 4.48}
{"variant": "KKIFKSHLKSSRNSTSVKKKISRN", "protein stability index": 3.98}
{"variant": "KKIFKSHLKSSRNSTSVKKKLSRN", "protein stability index": 3.77}
{"variant": "KKIFKSHLKSSRNSTSVKKKCSRN", "protein stability index": 3.84}
{"variant": "KKIFKSHLKSSRNSTSVKKKPSRN", "protein stability index": 3.72}
{"variant": "KKIFKSHLKSSRNSTSVKKKRSRN", "protein stability index": 4.27}
{"variant": "KKIFKSHLKSSRNSTSVKKKDSRN", "protein stability index": 4.42}
{"variant": "KKIFKSHLKSSRNSTSVKKKHSRN", "protein stability index": 4.22}
{"variant": "KKIFKSHLKSSRNSTSVKKKYSRN", "protein stability index": 3.38}
{"variant": "KKIFKSHLKSSRNSTSVKKKVSRN", "protein stability index": 4.14}
{"variant": "KKIFKSHLKSSRNSTSVKKKESRN", "protein stability index": 3.8}
{"variant": "KKIFKSHLKSSRNSTSVKKKWSRN", "protein stability index": 3.3}
{"variant": "KKIFKSHLKSSRNSTSVKKKFSRN", "protein stability index": 3.73}
